The numbers were not newly measured in PMC10817355, which cites them from elsewhere.

pKd: −log10 of the molar value.

The series addresses BTLA (Homo sapiens) (UniProt Q7Z6A9).
UniProt Q7Z6A9, sequence (Q7Z6A9 31-157): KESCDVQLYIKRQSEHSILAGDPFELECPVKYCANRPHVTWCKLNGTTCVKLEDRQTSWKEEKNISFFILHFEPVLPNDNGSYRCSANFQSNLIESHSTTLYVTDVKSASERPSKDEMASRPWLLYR

On to HVEM(14-39) 14-39 (from UniProt Q92956), for which the negative logarithm of the Kd (pKd) is 6.99.

As a reminder, the pKd is −log10 of the Kd, conventionally taken in molar units.
